Reference: US20260234282A1 (VIB VZW, published 2026)

Columns and labels:
[1] = molecular target: T1, recombinant human CD163 protein (hCD163-Avi-His6, U-Protein Express BV) (human, UniProt Q86VB7 42-1050, limits assumed, site-specifically biotinylated on the Avi tag in the ELISA format); assay: ELISA-format binding of radiolabeled sdAb to human CD163-Avi-His6 protein, read by gamma-counter
T1 construct: Bought recombinant protein; also called hCD163 protein; recombinant hCD163; not shown: Avi tag and His6 tag
Source text: (§1) FIG. 9. Determination of single domain antibody binding affinities after NOTA-conjugation via ELISA and a cell-binding study. (A) Binding of different concentrations of the ⁶⁸Gallium-labeled anti-CD163 single domain antibody (“[⁶⁸Ga]Ga-NOTA-anti-CD163 Nb”) to the human CD163-Avi-Hexahistine protein, compared to binding of a control irrelevant ⁶⁸Gallium-labeled single domain antibody (“[⁶⁸Ga]Ga-NOTA-Irr Nb”) (B) Single domain antibody binding of different concentrations of the […] anti-CD163 single domain antibody to HEK293T cells overexpressing mouse CD163.
(§2) Affinity determination of the [⁶⁸Ga]Ga-NOTA-anti-CD163 sdAb via ELISA was performed as described in the previous paragraph. The radioactive sdAb binding on the hCD163-Avi-His6 protein was measured via a γ-counter.

[2] = molecular target: T1, recombinant human CD163 protein …; assay: ELISA-format binding to hCD163-Avi-His6, bound radioactivity by gamma counter (FIG. 9A); radiolabeled; recombinant hCD163 protein (FIG. 9A)
Source text: as §1, §2

[3] = molecular target: T2, human CD163 on HEK293T cells overexpressing hCD163 (human, UniProt Q86VB7 42-1156); assay: flow cytometry on HEK293T hCD163+ cells; mean ± S.D. of at least 3 independent experiments
T2 construct: whole, on cells; also called HEK hCD163+ cells; HEK293T hCD163+ cells
Protocol: (§3) Serial dilutions of the CD163-targeting sdAb and of the NOTA-conjugated anti-CD163 sdAb were incubated with 500.000 HEK293T cells overexpressing hCD163 or mCD163 in FACS buffer (HBSS (Gibco) supplemented with 1% FBS and 2 mM EDTA (Duchefa Biochemie, Haarlem, The Netherlands)) for 1 h at 4° C. NOTA-sdAb binding was detected by incubation of the cells with a PE tagged anti-VHH Ab (1:500 in FACS buffer, Genscript, Piscataway, NJ, USA) for 30 min at 4° C. Cells were washed once with FACS buffer. Next, sdAb binding was detected by incubation of the cells with an Alexa Fluor®-488 tagged anti-HA antibody (1:1000 in FACS buffer, clone 16B12, Biolegend, San Diego, CA, USA) for 30 min at 4° C. Again, cells were washed once with FACS buffer. sdAb binding was determined using the FACS CANTO II analyser (BD Biosciences, Franklin Lakes, NJ, USA). The mean fluorescent intensity of sdAb binding was determined using FlowJo version 10.

[4] = molecular target: T1, recombinant human CD163 protein …; assay: SPR (Biacore T200), recombinant hCD163 protein
Protocol: (§4) The affinity of purified CD163-targeting sdAb and of the NOTA-conjugated anti-CD163 sdAb to recombinant hCD163 and mCD163 protein (U-Protein Express BV) was determined using the BIACORE-T200 (GE Healthcare, Freiburg, Germany). Surface plasmon resonance measurements were performed at 25° C. with HEPES buffered saline (HBS, 20 mM of HEPES pH 7.4, 150 mM of NaCl, 3.4 mM of EDTA 0.05% Tween-20) running buffer. The sdAbs were injected consecutively in 2-fold serial dilutions, from 250 to 1 nM. The association step was 100 s, the dissociation step was 200 s, and the two-step regeneration of 35 s at 30 μL·min-1, using 100 mM glycine at pH 3.0, was performed. Local curve fitting analysis was performed using the BIACORE evaluation software (GE Healthcare) by fitting the obtained sensorgrams to theoretical curves, assuming 1-1 binding geometries. For the determination of the equilibrium dissociation constant, the ratio of the association and dissociation rate constants were determined.

[5] = molecular target: T2, human CD163 on HEK293T cells …; assay: flow cytometry on HEK293T hCD163+ cells
Source text: FIG. 2. Binding of the CD163-targeting single domain antibody (23766) to HEK293T cells overexpressing the hCD163 or mCD163 protein. A) Binding of different concentrations of the CD163-specific single domain antibody 23766 or an irrelevant single domain antibody (“Irr Nb”; R3b23) to HEK293T cells overexpressing (A), hCD163 or (B) mCD163 protein. Binding was detected as mean fluorescent intensity (MFI) via the C-terminal His-tag and a fluorescent labeled anti-His antibody using flow cytometry.
as §3, with “Cells were washed once with FACS buffer.” left out

[6] = molecular target: T1, recombinant human CD163 protein …; assay: SPR, recombinant hCD163 protein; mean ± S.D. of at least 3 independent experiments; mean ± S.D of at least 3 independent experiments (Table 1B), not the single value of Table 1A
Protocol: as §4

[7] = molecular target: T1, recombinant human CD163 protein …; assay: binding to recombinant hCD163 protein (SPR per paragraph 101); NOTA-conjugated, not radiolabeled; recombinant hCD163 protein
Protocol: as §4

T1 sequence (Q86VB7 42-1050 limits assumed): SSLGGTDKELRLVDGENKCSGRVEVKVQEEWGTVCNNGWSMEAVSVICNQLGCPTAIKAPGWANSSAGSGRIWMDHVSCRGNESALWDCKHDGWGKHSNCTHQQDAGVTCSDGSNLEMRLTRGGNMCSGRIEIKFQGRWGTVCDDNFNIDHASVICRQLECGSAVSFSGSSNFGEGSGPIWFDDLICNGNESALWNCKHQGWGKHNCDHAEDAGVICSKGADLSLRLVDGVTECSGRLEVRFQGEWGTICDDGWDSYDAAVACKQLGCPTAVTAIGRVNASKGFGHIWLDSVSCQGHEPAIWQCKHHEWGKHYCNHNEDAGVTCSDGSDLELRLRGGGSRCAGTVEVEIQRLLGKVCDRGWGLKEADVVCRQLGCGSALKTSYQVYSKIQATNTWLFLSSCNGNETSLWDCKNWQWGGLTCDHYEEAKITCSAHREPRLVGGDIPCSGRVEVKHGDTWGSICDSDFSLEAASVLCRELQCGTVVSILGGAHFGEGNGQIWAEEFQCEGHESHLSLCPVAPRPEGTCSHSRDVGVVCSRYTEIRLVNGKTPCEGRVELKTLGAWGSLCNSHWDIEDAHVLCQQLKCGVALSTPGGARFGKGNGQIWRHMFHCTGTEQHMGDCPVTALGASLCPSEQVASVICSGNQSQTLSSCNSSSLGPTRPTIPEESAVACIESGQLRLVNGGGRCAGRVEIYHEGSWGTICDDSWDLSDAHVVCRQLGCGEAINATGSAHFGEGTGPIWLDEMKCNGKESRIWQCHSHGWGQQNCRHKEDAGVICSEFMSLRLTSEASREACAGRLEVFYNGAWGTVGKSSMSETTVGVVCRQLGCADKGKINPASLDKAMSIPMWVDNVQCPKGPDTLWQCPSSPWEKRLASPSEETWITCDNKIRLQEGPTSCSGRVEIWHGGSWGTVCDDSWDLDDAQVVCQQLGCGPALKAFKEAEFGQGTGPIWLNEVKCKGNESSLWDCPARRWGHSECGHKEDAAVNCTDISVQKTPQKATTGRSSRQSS
T2 sequence (Q86VB7 42-1156): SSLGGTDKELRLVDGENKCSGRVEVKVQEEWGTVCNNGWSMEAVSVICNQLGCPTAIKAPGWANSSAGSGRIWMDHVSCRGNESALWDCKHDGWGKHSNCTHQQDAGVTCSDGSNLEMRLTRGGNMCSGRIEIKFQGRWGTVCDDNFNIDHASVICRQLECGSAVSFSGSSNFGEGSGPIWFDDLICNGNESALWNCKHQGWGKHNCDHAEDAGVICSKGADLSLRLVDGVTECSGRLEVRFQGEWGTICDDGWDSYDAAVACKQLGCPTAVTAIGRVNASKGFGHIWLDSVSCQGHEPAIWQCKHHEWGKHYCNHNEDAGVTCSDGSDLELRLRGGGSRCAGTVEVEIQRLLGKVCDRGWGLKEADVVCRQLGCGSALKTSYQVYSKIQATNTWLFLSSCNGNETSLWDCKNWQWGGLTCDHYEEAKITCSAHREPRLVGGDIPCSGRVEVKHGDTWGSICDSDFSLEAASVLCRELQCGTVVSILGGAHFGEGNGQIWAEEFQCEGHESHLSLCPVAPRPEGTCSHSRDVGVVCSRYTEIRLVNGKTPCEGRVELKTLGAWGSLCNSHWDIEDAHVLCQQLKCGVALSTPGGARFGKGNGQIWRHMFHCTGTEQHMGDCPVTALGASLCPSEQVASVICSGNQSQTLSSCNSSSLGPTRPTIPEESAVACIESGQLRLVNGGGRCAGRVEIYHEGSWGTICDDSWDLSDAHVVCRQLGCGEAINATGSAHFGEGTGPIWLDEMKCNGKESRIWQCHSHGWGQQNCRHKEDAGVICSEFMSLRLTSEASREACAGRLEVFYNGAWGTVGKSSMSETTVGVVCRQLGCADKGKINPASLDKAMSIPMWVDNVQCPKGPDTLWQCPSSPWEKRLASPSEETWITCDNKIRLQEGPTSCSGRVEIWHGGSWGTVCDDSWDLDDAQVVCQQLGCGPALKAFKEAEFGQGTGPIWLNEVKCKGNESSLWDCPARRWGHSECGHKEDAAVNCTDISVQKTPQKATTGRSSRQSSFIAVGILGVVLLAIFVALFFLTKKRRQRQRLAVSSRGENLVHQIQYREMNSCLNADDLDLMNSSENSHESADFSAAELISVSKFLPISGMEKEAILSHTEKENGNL

B1: [68Ga]Ga-NOTA-anti-CD163 single domain antibody (VHH)
VHH: DVQLVESGGGLVQPGGSLRLSCAASGITFSSYAVAWFRQASGKEREFVAFIGWDGDTTYYVDSVKGRFTISRDNAKNMVYLQMNSLKPDDTAIYYCARHKTLWRSSWDNRPVQYDYWGQGTQVTVSS
modifications: p-SCN-Bn-NOTA randomly conjugated to lysines, chelating 68Ga
notes: Radiolabeled form of the NOTA conjugate of the lead anti-CD163 sdAb; also called 68Gallium-labeled anti-CD163 single domain antibody; [68Ga]Ga-NOTA-anti-CD163 Nb
In the case of B1, the “EC50 (read off the curve)” value [1] is reported as ~7 nM and the Kd [2] is reported as 9.11 nM.

B2: CD163-targeting single domain antibody 23766 (VHH, not shown: small tags and cut ends)
VHH: DVQLVESGGGLVQPGGSLRLSCAASGITFSSYAVAWFRQASGKEREFVAFIGWDGDTTYYVDSVKGRFTISRDNAKNMVYLQMNSLKPDDTAIYYCARHKTLWRSSWDNRPVQYDYWGQGTQVTVSS
notes: Llama-derived sdAb cloned in the pMECS phage vector; also called sdAb 23766; sdAb23766
For B2, the Kd [3] was 11.3 nM, the Kd [4] was 3.5 nM and the Kd [5] was 2.5 nM. For the same binder, the Kd [6] was 0.5 nM.

B3: NOTA-conjugated anti-CD163 single domain antibody (VHH)
VHH: DVQLVESGGGLVQPGGSLRLSCAASGITFSSYAVAWFRQASGKEREFVAFIGWDGDTTYYVDSVKGRFTISRDNAKNMVYLQMNSLKPDDTAIYYCARHKTLWRSSWDNRPVQYDYWGQGTQVTVSS
modifications: p-SCN-Bn-NOTA randomly conjugated to lysines; 2.32±0.12 chelator per single domain antibody
notes: The lead anti-CD163 sdAb (23766) conjugated to NOTA; also called NOTA-single domain antibody; NOTA-sdAb
B3 gave a Kd [7] of 1.55 nM.
